# According to EP4692114A1, “CALCITONIN ANALOGUE, AND DERIVATIVE THEREOF AND USE THEREOF” (Hangzhou Sciwind Biosciences Co., Ltd., priority 2023, dated 2024):
# *1 amine or outer side, *2 acyl side, *3 side chain or, on linkers, in order; H or OH if unused. The star is where a group is joined. C20 diacid = O=C(O)CCCCCCCCCCCCCCCCCCC(=O)*; C18 diacid = O=C(O)CCCCCCCCCCCCCCCCC(=O)*; C16 diacid = O=C(O)CCCCCCCCCCCCCCC(=O)*; γGlu = O=C(O)[C@H](CCC(=O)[*:2])N[*:1]; AEEA = NCCOCCOCC(=O)O
# T1: human amylin receptor (AMY3) on CHO-K1/Gal5/AMY3 cells (human, UniProt P30988 25-474; O60896 24-148)
# T1 sequence (looked up) 1: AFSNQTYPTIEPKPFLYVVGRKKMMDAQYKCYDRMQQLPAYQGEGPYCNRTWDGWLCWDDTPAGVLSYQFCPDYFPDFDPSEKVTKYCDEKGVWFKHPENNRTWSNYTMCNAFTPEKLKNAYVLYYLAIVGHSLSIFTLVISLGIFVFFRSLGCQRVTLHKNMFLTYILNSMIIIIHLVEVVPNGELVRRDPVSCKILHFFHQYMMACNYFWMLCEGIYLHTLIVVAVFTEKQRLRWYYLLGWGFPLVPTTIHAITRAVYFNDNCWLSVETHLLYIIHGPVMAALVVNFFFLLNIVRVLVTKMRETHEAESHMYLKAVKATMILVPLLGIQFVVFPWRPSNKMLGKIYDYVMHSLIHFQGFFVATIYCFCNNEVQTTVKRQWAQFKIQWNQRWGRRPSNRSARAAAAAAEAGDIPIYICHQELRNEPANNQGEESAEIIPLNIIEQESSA
# T1 sequence (looked up) 2: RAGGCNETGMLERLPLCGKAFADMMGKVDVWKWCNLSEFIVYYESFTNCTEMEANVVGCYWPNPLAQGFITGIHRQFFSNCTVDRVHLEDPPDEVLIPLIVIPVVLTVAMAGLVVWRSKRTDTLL
# Target: T1, human amylin receptor (AMY3) on …
# Experiment: cell-based or functional assay
row,Binder,"EC50/nM, CRE-luciferase in amylin receptor/CRE-luc CHO cells"
1,{C18 diacid}-DASQLSTAVLGRLSQELHRLQDYPRTDVGSGSP-NH2 (SMILES CC(C)C[C@H](NC(=O)[C@H](CCCNC(=N)N)NC(=O)CNC(=O)[C@H](CC(C)C)NC(=O)[C@@H](NC(=O)[C@H](C)NC(=O)[C@@H](NC(=O)[C@H](CO)NC(=O)[C@H](CC(C)C)NC(=O)[C@H](CCC(N)=O)NC(=O)[C@H](CO)NC(=O)[C@H](C)NC(=O)[C@H](CC(=O)O)NC(=O)CCCCCCCCCCCCCCCCC(=O)O)[C@@H](C)O)C(C)C)C(=O)N[C@@H](CO)C(=O)N[C@@H](CCC(N)=O)C(=O)N[C@@H](CCC(=O)O)C(=O)N[C@@H](CC(C)C)C(=O)N[C@@H](Cc1c[nH]cn1)C(=O)N[C@@H](CCCNC(=N)N)C(=O)N[C@@H](CC(C)C)C(=O)N[C@@H](CCC(N)=O)C(=O)N[C@@H](CC(=O)O)C(=O)N[C@@H](Cc1ccc(O)cc1)C(=O)N1CCC[C@H]1C(=O)N[C@@H](CCCNC(=N)N)C(=O)N[C@H](C(=O)N[C@@H](CC(=O)O)C(=O)N[C@H](C(=O)NCC(=O)N[C@@H](CO)C(=O)NCC(=O)N[C@@H](CO)C(=O)N1CCC[C@H]1C(N)=O)C(C)C)[C@@H](C)O) [calcitonin derivative M23],0.01 nM
2,{C18 diacid}-EASQLSTAVLGRLSQELHRLQDYPRTDVGSGSP-NH2 (SMILES CC(C)C[C@H](NC(=O)[C@H](CCCNC(=N)N)NC(=O)CNC(=O)[C@H](CC(C)C)NC(=O)[C@@H](NC(=O)[C@H](C)NC(=O)[C@@H](NC(=O)[C@H](CO)NC(=O)[C@H](CC(C)C)NC(=O)[C@H](CCC(N)=O)NC(=O)[C@H](CO)NC(=O)[C@H](C)NC(=O)[C@H](CCC(=O)O)NC(=O)CCCCCCCCCCCCCCCCC(=O)O)[C@@H](C)O)C(C)C)C(=O)N[C@@H](CO)C(=O)N[C@@H](CCC(N)=O)C(=O)N[C@@H](CCC(=O)O)C(=O)N[C@@H](CC(C)C)C(=O)N[C@@H](Cc1c[nH]cn1)C(=O)N[C@@H](CCCNC(=N)N)C(=O)N[C@@H](CC(C)C)C(=O)N[C@@H](CCC(N)=O)C(=O)N[C@@H](CC(=O)O)C(=O)N[C@@H](Cc1ccc(O)cc1)C(=O)N1CCC[C@H]1C(=O)N[C@@H](CCCNC(=N)N)C(=O)N[C@H](C(=O)N[C@@H](CC(=O)O)C(=O)N[C@H](C(=O)NCC(=O)N[C@@H](CO)C(=O)NCC(=O)N[C@@H](CO)C(=O)N1CCC[C@H]1C(N)=O)C(C)C)[C@@H](C)O) [calcitonin derivative M24],0.016 nM
3,{C20 diacid-γGlu}-ASQLSTAVLGRLSQELHRLQDYPRTDVGAGSP-NH2 (SMILES CC(C)C[C@H](NC(=O)[C@H](CCCNC(=N)N)NC(=O)CNC(=O)[C@H](CC(C)C)NC(=O)[C@@H](NC(=O)[C@H](C)NC(=O)[C@@H](NC(=O)[C@H](CO)NC(=O)[C@H](CC(C)C)NC(=O)[C@H](CCC(N)=O)NC(=O)[C@H](CO)NC(=O)[C@H](C)NC(=O)CC[C@H](NC(=O)CCCCCCCCCCCCCCCCCCC(=O)O)C(=O)O)[C@@H](C)O)C(C)C)C(=O)N[C@@H](CO)C(=O)N[C@@H](CCC(N)=O)C(=O)N[C@@H](CCC(=O)O)C(=O)N[C@@H](CC(C)C)C(=O)N[C@@H](Cc1c[nH]cn1)C(=O)N[C@@H](CCCNC(=N)N)C(=O)N[C@@H](CC(C)C)C(=O)N[C@@H](CCC(N)=O)C(=O)N[C@@H](CC(=O)O)C(=O)N[C@@H](Cc1ccc(O)cc1)C(=O)N1CCC[C@H]1C(=O)N[C@@H](CCCNC(=N)N)C(=O)N[C@H](C(=O)N[C@@H](CC(=O)O)C(=O)N[C@H](C(=O)NCC(=O)N[C@@H](C)C(=O)NCC(=O)N[C@@H](CO)C(=O)N1CCC[C@H]1C(N)=O)C(C)C)[C@@H](C)O) [calcitonin derivative M19],0.016 nM
4,{C20 diacid-γGlu-AEEA-AEEA}-ASQLSTAVLGRLSEELHRLQDYPRTDVGSGSP-NH2 (SMILES CC(C)C[C@H](NC(=O)[C@H](CCCNC(=N)N)NC(=O)CNC(=O)[C@H](CC(C)C)NC(=O)[C@@H](NC(=O)[C@H](C)NC(=O)[C@@H](NC(=O)[C@H](CO)NC(=O)[C@H](CC(C)C)NC(=O)[C@H](CCC(N)=O)NC(=O)[C@H](CO)NC(=O)[C@H](C)NC(=O)COCCOCCNC(=O)COCCOCCNC(=O)CC[C@H](NC(=O)CCCCCCCCCCCCCCCCCCC(=O)O)C(=O)O)[C@@H](C)O)C(C)C)C(=O)N[C@@H](CO)C(=O)N[C@@H](CCC(=O)O)C(=O)N[C@@H](CCC(=O)O)C(=O)N[C@@H](CC(C)C)C(=O)N[C@@H](Cc1c[nH]cn1)C(=O)N[C@@H](CCCNC(=N)N)C(=O)N[C@@H](CC(C)C)C(=O)N[C@@H](CCC(N)=O)C(=O)N[C@@H](CC(=O)O)C(=O)N[C@@H](Cc1ccc(O)cc1)C(=O)N1CCC[C@H]1C(=O)N[C@@H](CCCNC(=N)N)C(=O)N[C@H](C(=O)N[C@@H](CC(=O)O)C(=O)N[C@H](C(=O)NCC(=O)N[C@@H](CO)C(=O)NCC(=O)N[C@@H](CO)C(=O)N1CCC[C@H]1C(N)=O)C(C)C)[C@@H](C)O) [calcitonin derivative M57],0.017 nM
5,{C16 diacid-γGlu}-ASQLSTAVLGRLSDELHRLQDYPRTDVGSGSP-NH2 (SMILES CC(C)C[C@H](NC(=O)[C@H](CCCNC(=N)N)NC(=O)CNC(=O)[C@H](CC(C)C)NC(=O)[C@@H](NC(=O)[C@H](C)NC(=O)[C@@H](NC(=O)[C@H](CO)NC(=O)[C@H](CC(C)C)NC(=O)[C@H](CCC(N)=O)NC(=O)[C@H](CO)NC(=O)[C@H](C)NC(=O)CC[C@H](NC(=O)CCCCCCCCCCCCCCC(=O)O)C(=O)O)[C@@H](C)O)C(C)C)C(=O)N[C@@H](CO)C(=O)N[C@@H](CC(=O)O)C(=O)N[C@@H](CCC(=O)O)C(=O)N[C@@H](CC(C)C)C(=O)N[C@@H](Cc1c[nH]cn1)C(=O)N[C@@H](CCCNC(=N)N)C(=O)N[C@@H](CC(C)C)C(=O)N[C@@H](CCC(N)=O)C(=O)N[C@@H](CC(=O)O)C(=O)N[C@@H](Cc1ccc(O)cc1)C(=O)N1CCC[C@H]1C(=O)N[C@@H](CCCNC(=N)N)C(=O)N[C@H](C(=O)N[C@@H](CC(=O)O)C(=O)N[C@H](C(=O)NCC(=O)N[C@@H](CO)C(=O)NCC(=O)N[C@@H](CO)C(=O)N1CCC[C@H]1C(N)=O)C(C)C)[C@@H](C)O) [calcitonin derivative M40],0.002 nM
6,{C20 diacid}-EASQLSTAVLGRLSDELHRLQDYPRTDVGSGSP-NH2 (SMILES CC(C)C[C@H](NC(=O)[C@H](CCCNC(=N)N)NC(=O)CNC(=O)[C@H](CC(C)C)NC(=O)[C@@H](NC(=O)[C@H](C)NC(=O)[C@@H](NC(=O)[C@H](CO)NC(=O)[C@H](CC(C)C)NC(=O)[C@H](CCC(N)=O)NC(=O)[C@H](CO)NC(=O)[C@H](C)NC(=O)[C@H](CCC(=O)O)NC(=O)CCCCCCCCCCCCCCCCCCC(=O)O)[C@@H](C)O)C(C)C)C(=O)N[C@@H](CO)C(=O)N[C@@H](CC(=O)O)C(=O)N[C@@H](CCC(=O)O)C(=O)N[C@@H](CC(C)C)C(=O)N[C@@H](Cc1c[nH]cn1)C(=O)N[C@@H](CCCNC(=N)N)C(=O)N[C@@H](CC(C)C)C(=O)N[C@@H](CCC(N)=O)C(=O)N[C@@H](CC(=O)O)C(=O)N[C@@H](Cc1ccc(O)cc1)C(=O)N1CCC[C@H]1C(=O)N[C@@H](CCCNC(=N)N)C(=O)N[C@H](C(=O)N[C@@H](CC(=O)O)C(=O)N[C@H](C(=O)NCC(=O)N[C@@H](CO)C(=O)NCC(=O)N[C@@H](CO)C(=O)N1CCC[C@H]1C(N)=O)C(C)C)[C@@H](C)O) [calcitonin derivative M41],0.069 nM
7,{C20 diacid-γGlu}-ASQLSTAVLGRLSEELHRLQDYPRTDVGSGSP-NH2 (SMILES CC(C)C[C@H](NC(=O)[C@H](CCCNC(=N)N)NC(=O)CNC(=O)[C@H](CC(C)C)NC(=O)[C@@H](NC(=O)[C@H](C)NC(=O)[C@@H](NC(=O)[C@H](CO)NC(=O)[C@H](CC(C)C)NC(=O)[C@H](CCC(N)=O)NC(=O)[C@H](CO)NC(=O)[C@H](C)NC(=O)CC[C@H](NC(=O)CCCCCCCCCCCCCCCCCCC(=O)O)C(=O)O)[C@@H](C)O)C(C)C)C(=O)N[C@@H](CO)C(=O)N[C@@H](CCC(=O)O)C(=O)N[C@@H](CCC(=O)O)C(=O)N[C@@H](CC(C)C)C(=O)N[C@@H](Cc1c[nH]cn1)C(=O)N[C@@H](CCCNC(=N)N)C(=O)N[C@@H](CC(C)C)C(=O)N[C@@H](CCC(N)=O)C(=O)N[C@@H](CC(=O)O)C(=O)N[C@@H](Cc1ccc(O)cc1)C(=O)N1CCC[C@H]1C(=O)N[C@@H](CCCNC(=N)N)C(=O)N[C@H](C(=O)N[C@@H](CC(=O)O)C(=O)N[C@H](C(=O)NCC(=O)N[C@@H](CO)C(=O)NCC(=O)N[C@@H](CO)C(=O)N1CCC[C@H]1C(N)=O)C(C)C)[C@@H](C)O) [calcitonin derivative M9],0.017 nM
